Assays:
[1] = molecular target: T1, unliganded hTOM70 (cytoplasmic segment of human TOM70) (human); test: ITC
T1 sequence (O94826 whole entry, looked up): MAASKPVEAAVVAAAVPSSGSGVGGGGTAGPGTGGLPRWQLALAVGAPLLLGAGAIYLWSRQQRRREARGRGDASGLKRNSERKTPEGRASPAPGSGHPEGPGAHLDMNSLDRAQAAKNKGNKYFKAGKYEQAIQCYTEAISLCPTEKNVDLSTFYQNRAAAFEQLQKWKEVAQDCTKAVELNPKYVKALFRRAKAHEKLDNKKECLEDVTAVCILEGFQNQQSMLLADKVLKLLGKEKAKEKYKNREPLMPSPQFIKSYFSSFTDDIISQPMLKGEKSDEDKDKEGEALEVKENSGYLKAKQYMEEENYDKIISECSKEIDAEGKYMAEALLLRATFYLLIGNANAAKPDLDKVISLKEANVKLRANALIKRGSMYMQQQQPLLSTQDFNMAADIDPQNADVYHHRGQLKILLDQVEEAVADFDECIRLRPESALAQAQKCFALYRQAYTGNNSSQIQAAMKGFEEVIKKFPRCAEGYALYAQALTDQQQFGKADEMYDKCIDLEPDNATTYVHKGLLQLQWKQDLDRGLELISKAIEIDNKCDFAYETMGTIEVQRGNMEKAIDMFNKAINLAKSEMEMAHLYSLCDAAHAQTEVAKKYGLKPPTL

hTOM70/N-peptide complex = hTOM70/N-peptide complex (Homo sapiens, UniProt O94826); format: binding
[2] = molecular target: T2, SARS-CoV-2 orf9b with an N-terminal His-tag, co-expressed with hTOM70 (SARS-CoV-2, UniProt P0DTD2 1-97); test: SEC + AUC; settings: both partners purified
T2 construct: also called intact orf9b
T2 sequence (P0DTD2 whole entry): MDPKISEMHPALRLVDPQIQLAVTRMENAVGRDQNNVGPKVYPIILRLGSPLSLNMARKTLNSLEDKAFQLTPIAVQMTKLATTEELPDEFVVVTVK

## C-peptide (SARS-CoV-2 orf9b core sequence 44-70) (from UniProt P0DTD2 44-70)
[1]
  dH: 2.65 kcal/mol

## CC[C@H](C)[C@H](N)C(=O)N[C@H](C(=O)N[C@@H](CC(C)C)C(=O)N[C@@H](CCCNC(=N)N)C(=O)N[C@@H](CC(C)C)C(=O)NCC(=O)N[C@@H](CO)C(=O)N1CCC[C@H]1C(=O)N[C@@H](CC(C)C)C(=O)N[C@@H](CO)C(=O)N[C@@H](CC(C)C)C(=O)N[C@@H](CC(N)=O)C(=O)N[C@@H](CCSC)C(=O)N[C@@H](C)C(=O)N[C@@H](CCCNC(=N)N)C(=O)N[C@@H](CCCCN)C(=O)N[C@H](C(=O)N[C@@H](CC(C)C)C(=O)N[C@@H](CC(N)=O)C(=O)N[C@@H](CO)C(=O)N[C@@H](CC(C)C)C(=O)N[C@@H](CCC(=O)O)C(=O)N[C@@H](CC(=O)O)C(=O)N[C@@H](CCCCN)C(=O)N[C@@H](C)C(=O)N[C@@H](Cc1ccccc1)C(=O)N[C@@H](CCC(N)=O)C(=O)O)[C@@H](C)O)[C@@H](C)CC [C-peptide]
hTOM70/N-peptide complex
  ΔH, enthalpy variation: 0.981 ± 0.024 kcal/mol
  ΔS, entropy variation: 32.5

B1: hTOM70 ΔN2 (106-608), co-expressed with orf9b (domain or fragment, human, UniProt O94826 106-608, looked up)
chain: LDMNSLDRAQAAKNKGNKYFKAGKYEQAIQCYTEAISLCPTEKNVDLSTFYQNRAAAFEQLQKWKEVAQDCTKAVELNPKYVKALFRRAKAHEKLDNKKECLEDVTAVCILEGFQNQQSMLLADKVLKLLGKEKAKEKYKNREPLMPSPQFIKSYFSSFTDDIISQPMLKGEKSDEDKDKEGEALEVKENSGYLKAKQYMEEENYDKIISECSKEIDAEGKYMAEALLLRATFYLLIGNANAAKPDLDKVISLKEANVKLRANALIKRGSMYMQQQQPLLSTQDFNMAADIDPQNADVYHHRGQLKILLDQVEEAVADFDECIRLRPESALAQAQKCFALYRQAYTGNNSSQIQAAMKGFEEVIKKFPRCAEGYALYAQALTDQQQFGKADEMYDKCIDLEPDNATTYVHKGLLQLQWKQDLDRGLELISKAIEIDNKCDFAYETMGTIEVQRGNMEKAIDMFNKAINLAKSEMEMAHLYSLCDAAHAQTEVAKKYGLKPPTL
notes: also called TOM70 (106-608); cytosolic domain of hTOM70
[2]
  stoichiometry N: 1

Source: paper PMC8121815 (Nature Communications, 2021)
